Key:
Conditions in all cases: both partners purified
CgnC = target: T1, CgnC (Chondromyces crocatus CM c5); test: SEC; size-exclusion chromatography of the single proteins in solution
T1 chain: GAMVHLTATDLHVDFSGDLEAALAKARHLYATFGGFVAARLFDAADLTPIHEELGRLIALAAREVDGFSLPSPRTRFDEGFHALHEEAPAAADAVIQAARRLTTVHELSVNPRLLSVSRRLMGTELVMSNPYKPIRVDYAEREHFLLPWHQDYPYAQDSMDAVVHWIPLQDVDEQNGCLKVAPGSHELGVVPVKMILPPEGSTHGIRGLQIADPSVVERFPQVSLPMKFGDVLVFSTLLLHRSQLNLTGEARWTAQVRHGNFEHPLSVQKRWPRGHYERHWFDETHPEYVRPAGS

CgnB [1] = target: T2, CgnB (Chondromyces crocatus CM c5); test: MST; microscale thermophoresis in the presence of a constant, large excess of CgnE (250 µM)
T2 construct: CgnB of the crocagin BGC of Chondromyces crocatus CM c5; Construct details are in the Supplementary Methods; source: purified (HisTrap, His-SUMO removed with TEV protease, Superdex 200)

[2] = target: T3, CgnE in the presence of CgnA (400 µM) (Chondromyces crocatus CM c5); test: MST; microscale thermophoresis in the presence of CgnA (400 µM)
T3 construct: CgnE of Chondromyces crocatus CM c5, as m4; CgnA of Chondromyces crocatus CM c5, 21 amino acids, as m1; also called CgnA-CgnE; source: purified CgnE mixed with 400 µM CgnA

[3] = target: T4, CgnB in the presence of CgnA (400 µM) (Chondromyces crocatus CM c5); test: as above
T4 construct: CgnB of Chondromyces crocatus CM c5, as m2; CgnA of Chondromyces crocatus CM c5, 21 amino acids, as m1; also called CgnA-CgnB; source: purified CgnB mixed with 400 µM CgnA

CgnB [4] = target: T2, CgnB; test: MST; microscale thermophoresis of two components; which one was titrated is told only in Fig. 3c
CgnE = target: T5, CgnE (Chondromyces crocatus CM c5); test: as above
T5 construct: CgnE of the crocagin BGC of Chondromyces crocatus CM c5; Construct details are in the Supplementary Methods; source: purified (HisTrap, His-SUMO removed with TEV protease, Superdex 200)

B1: CgnC (enzyme)
chain: GAMVHLTATDLHVDFSGDLEAALAKARHLYATFGGFVAARLFDAADLTPIHEELGRLIALAAREVDGFSLPSPRTRFDEGFHALHEEAPAAADAVIQAARRLTTVHELSVNPRLLSVSRRLMGTELVMSNPYKPIRVDYAEREHFLLPWHQDYPYAQDSMDAVVHWIPLQDVDEQNGCLKVAPGSHELGVVPVKMILPPEGSTHGIRGLQIADPSVVERFPQVSLPMKFGDVLVFSTLLLHRSQLNLTGEARWTAQVRHGNFEHPLSVQKRWPRGHYERHWFDETHPEYVRPAGS
modifications: sequence from Supplementary Table 8 (the excerpt mark inside it is read as contiguous); N-terminal GA is a cloning remnant; dimer by size-exclusion chromatography / sequence from Supplementary Table …
- stoichiometry N (CgnC): 2

B2: CgnC in the presence of a constant, large excess (250 µM) of CgnE (complex)
chain 1: GAMVHLTATDLHVDFSGDLEAALAKARHLYATFGGFVAARLFDAADLTPIHEELGRLIALAAREVDGFSLPSPRTRFDEGFHALHEEAPAAADAVIQAARRLTTVHELSVNPRLLSVSRRLMGTELVMSNPYKPIRVDYAEREHFLLPWHQDYPYAQDSMDAVVHWIPLQDVDEQNGCLKVAPGSHELGVVPVKMILPPEGSTHGIRGLQIADPSVVERFPQVSLPMKFGDVLVFSTLLLHRSQLNLTGEARWTAQVRHGNFEHPLSVQKRWPRGHYERHWFDETHPEYVRPAGS
chain 2: GMGGRRTIGIRSGEGAIMNASDFYALLRGRGMPVVVDDAEAAAVVSELGFRTVPFEAFDFDSPSEDPALVIVAQMGNVDALHGLWERSGTPLMHLALAKFDGGLSRLRAGLARVLAVDTDAALKRRAEAYEQLFSSASVEIASGEGVLRCHIGDEVEVGNCGDTLEQGFLYSVAEFLEASVVNLEGERSTFWVEGELPFDGFIHLSNSAALKERWGGMLDEFMRRSREGANLVRFADNVIDRLVVGGVDVTSALAGLSQGEERGMAATEFGLGCADAEAAEPFGVNSLLHKSAGGAYIGIGKGLRIPHIDFIARGATIRFIPAAEG
modifications: CgnC is a dimer and CgnE a monomer in solution when alone; stoichiometry of the complex is not given
- Kd (CgnB [1]): 28 µM

B3: CgnC (enzyme)
chain: GAMVHLTATDLHVDFSGDLEAALAKARHLYATFGGFVAARLFDAADLTPIHEELGRLIALAAREVDGFSLPSPRTRFDEGFHALHEEAPAAADAVIQAARRLTTVHELSVNPRLLSVSRRLMGTELVMSNPYKPIRVDYAEREHFLLPWHQDYPYAQDSMDAVVHWIPLQDVDEQNGCLKVAPGSHELGVVPVKMILPPEGSTHGIRGLQIADPSVVERFPQVSLPMKFGDVLVFSTLLLHRSQLNLTGEARWTAQVRHGNFEHPLSVQKRWPRGHYERHWFDETHPEYVRPAGS
modifications: sequence from Supplementary Table 8 (the excerpt mark inside it is read as contiguous); N-terminal GA is a cloning remnant; dimer by size-exclusion chromatography
- fold increase of the CgnC–CgnE affinity on addition of CgnA (400 µM) [2]: 2 fold
- Kd [3]: ~0.1 µM
- Kd (CgnB [4]): ~6 µM
- Kd (CgnE): ~1 µM

Binder: MKKTIKQISAGDRSKKGN [CgnA leader peptide (CgnA^LP)]
- fold reduction in affinity compared to CgnA (CgnB [4]): 8 fold
- Kd (CgnE): 514 µM

Reference: paper PMC10070186, “Unusual peptide-binding proteins guide pyrroloindoline alkaloid formation in crocagin biosynthesis” (Nature Chemistry, 2023)
